Experimental data taken from patent publication US6541002.

Target: T1, Vpr protein of HIV-1, P12520
T1 chain: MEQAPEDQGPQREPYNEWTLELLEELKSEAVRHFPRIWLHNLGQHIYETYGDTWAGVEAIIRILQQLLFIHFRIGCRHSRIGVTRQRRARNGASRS

B1: dWF-CAT chimeric protein (protein)
chain: MQPWWAFFGGGSSWWSFSMGPTRMEKKITGYTTVDISQWHRKEHFEAFQSVAQCTYNQTVQLDITAFLKTVKKNKHKFYPAFIHILARLMNAHPEFRMAMKDGELVIWDSVHPCYTVFHEQTETFSSLWSEYHDDFRQFLHIYSQDVACYGENLAYFPKGFIENMFFVSANPWVSFTSFDLNVANMDNFFAPVFTMGKYYTQGDKVLMPLAIQVHHAVCDGFHVGRMLNELQQYCDEWQGGA
CAT activity of virions (conversion of chloramphenicol to an acetylated product): virions which were generated by WT/WF-CAT cells exhibited significantly higher CAT activity (28% conversion of chloramphenicol to an acetylated product) than virions which were generated by Vpr^-/WF-CAT cells (8% conversion)

B2: chloramphenicol acetyltransferase (CAT) (protein)
chain: MEKKITGYTTVDISQWHRKEHFEAFQSVAQCTYNQTVQLDITAFLKTVKKNKHKFYPAFIHILARLMNAHPEFRMAMKDGELVIWDSVHPCYTVFHEQTETFSSLWSEYHDDFRQFLHIYSQDVACYGENLAYFPKGFIENMFFVSANPWVSFTSFDLNVANMDNFFAPVFTMGKYYTQGDKVLMPLAIQVHHAVCDGFHVGRMLNELQQYCDEWQGGA
CAT activity of virions (conversion of chloramphenicol to an acetylated product): CAT activity exhibited by virions which were generated by Vpr^-/WF-CAT cells was comparable to CAT activity exhibited by virions which were generated by WT/CAT cells (each 8% conversion

B3: dWF-IN fusion protein (protein)
chain: MQPWWAFFGGGSSWWSFSMGPTRFLDGIDKAQEEHEKYHSNWRAMASDFNLPPVVAKEIVASCDKCQLKGEAMHGQVDCSPGIWQLDCTHLEGKVILVAVHVASGYIEAEVIPAETGQETAYFLLKLAGRWPVKTVHTDNGSNFTSTTVKAACWWAGIKQEFGIPYNPQSQGVIESMNKELKKIIGQVRDQAEHLKTAVQMAVFIHNFKRKGGIGGYSAGERIVDIIATDIQTKELQKQITKIQNFRVYYRDSRDPVWKGPAKLLWKGEGAVVIQDNSDIKVVPRRKAKIIRDYGKQMAGDDCVASRQDED
presence of the fusion protein in progeny virions (Western blotting): the presence of dWF-fusion proteins in progeny virions was dependent on expression of Vpr in cells in which the progeny virions were produced

B4: dWF-PR-IN fusion protein (protein)
chain: B3 chain
presence of the fusion protein in progeny virions (Western blotting): the presence of dWF-fusion proteins in progeny virions was dependent on expression of Vpr in cells in which the progeny virions were produced
